Laboratory results published in a protein production outcome set (Wang et al. 2014).

Test: label from the status in PepcDB records

Sequence	protein production
MFKLHILFALSAPQRIAFWVWRGLFVVALAAAGIGSTRAQSYSFRDYAQSDGLQGMSITGLVEDRRGVVWVATELALHRFERDRFIPVGQDQGLDARYTRALTLDHAGRLWVATANGVFVRNGEQFVQVLDHGKRIRADAGNVIAAYRTGVAVASNGALLALTPEADGHWQVQPLPVRTADGKLREPGTTLLADGQFLWVPCDGGVCRLDARGTVVEALSEADGVPARRWRVIFRERGGRLWLRGGGTIVSRAPGGARFTEHPANPENSFNTLSGSTTMVEDARGRMLTRSDHGLVRWEGTHWTDIGADQGLQLNALVGPLLLQSNGTLWLGTRGMGLQRVLGYDSIEHLTEAQGMPPAPTWTMQRLPNGMLAVGADGGASLLKRNATHAQPWLLEDGAVLSQALNITVAPDGAAWVSYYSGAIARRDPLTGVTSRVMDLPIAGYKLLFDKAGTVWIATPRGLVRGQAAPPYALAPDPAMEGKFIGDIDFDRQGRLWAATRDGLYRRNGTTWVKIPVRGSLPSQDMLQIDFAPNGEIWLSLRDTGLWHGRLQGDGSLLLQAVDDPLISRIMPYILRHDRKGRLWVGSSQGLDLYQNGHWSRITRAEGLLWDDMSSNAFLEDDDGSIWIGSSRGLSHLRDPQRLFAAQPLRVDIAEVRRGAQIVHSGASIAWSETPLEIELSTPGVEGGANRISFRYRVQARWTTSSLSHLTYPLLPPGNYTLEVQALDAYQRSASPIARFQFVIRPPWWRSIAAIAGYLLLAVVAVIALLRWRTAKLLRRKHELEQLVAERTAELEQDKRDLEAARAELSLKATHDELTGLLNRAGILAALREMLLHAARSGRPLAVVLIDLDHFKLVNDQHGHLAGDAVLAGVGHRMDTLVRGDDRIGRYGGEELLALLPGLTPGATHRLDAMHRGICGDYPVDDGWLHVTCSIGVAWFQAGETLEQLLARADAALYRAKRSGRNRIDYDHVPLDRLGQVLPLDPQQRE	failed
MFKNLIWLKEVDSTQERLKEWNVSYGTALVADRQTKGRGRLGRKWLSQEGGLYFSFLLNPKEFENLLQLPLVLGLSVSEALEEITEIPFSLKWPNDVYFQEKKVSGVLCELSKDKLIVGIGINVNQREIPEEIKDRATTLYEITGKDWDRKEVLLKVLKRISENLKKFKEKSFKEFKGKIESKMLYLGEEVKLLGEGKITGKLVGLSEKGGALILTEEGIKEILSGEFSLRRS	not failed
MFKNNDFIYIEYTAKIKDTGEIVDTTNEEEAKKANIYDETRNYGPRLVILGENRLIKGLEEALYNFNLNEEKTIEIPPEKAYGERDNSKIKIVPLGELRRQGITAVPNRVLRLSDGSLAVIRSVSGGRVVLDLNHPLAGRTLVYNVKVVKVLNNAKDKIMALIERRFSSKYANGFNVELDDGKKSVRITIPKDLYLVEDLQINVYSLAYEIVNYVLADYTVEVLQQYNKSTFSSS	failed
MFKNVKKSVTRTIASAMLLILLLSVATTGFAIFTLASSLNDAEAVNVAGSMRMQSYRLAHDIQIRSVDYSSHIDAFEHSIYSSSMKALQHWSVPEDITHDYYRLIMRWHELKSVLRGEDPSQYQLLVAGFVQQIDDFVFKLQNFSEQKLINLAWIGGLGLGGILCASMFVVHFIRLEVVRPLRALVFASERIKNRSFDINLAVSSDNEMGILTRTFNRMATDLGKLYRGLEQAVDEKTRKLQHANQSLEVLYDSSKELTASRINQDNFQAILKHIASLEGIKAVKLEIEQLGEPNWILTEGEECCHDCDDECHAEPLTLDGEHLGSLYWKAGLPCPNETLIDNFVQILSRAVYYNRAQRQAEQILLMEERATIARELHDSLAQALSYLKIQVALLKRSVKNLPDEKAIAQANQVIAELDTGLSAAYTQLRELLTTFRLTIKEGSFGQALQEMVETLNEQTTAEITLKNRLSSTELDAHQQVHLLQLIREAALNAIKHAQADHIHIQCLDCDGKVTVTVSDDGVGFEHQDEKINHYGMTIMQERAARLHADLQIEASINKGCTVKLEFQHSKEVNFDSV	failed
MFLNRKVELSLLENLHAEGKPKLILLYGKRRVGKTELLNEFARRHRALYLVARQEAYEGQLKKMSSEIAEFFDDDVLRHSPFQNYDALFIYLAQKETPVLFDEFPYLVEANRDLPSILQEYWDRYFSKKKTFLVLCGSSIAMMESLLGYKSPLYGRRTEQILLEPLKFREACEFFPQLEQEDKVLAYAVLGGTPAYLLEFDYGKPLLENIRDRILQKNTFLYQDTMFVLQQELTEPRVYYSIINSIAKGNTRLGEIMNDTGLEKSKITKYLSVLKDLHIIERRVPVTEKSPESSKKGIYLLKDNYFKFWFRFVFENAEYIEQGRQEKLIGDKISPVLNNFAGFAYEEIVLEYLKSSPGFPDYIFGRWWDKEEEIDVVGLDSSQNRIIFGEVKWKALTEKEARQTLNQLVEKSVEVKWGENLKSGEIQEGPEKKYMLVGKKVGGKKRLLGDGYLVLELDDLVEN	failed
MFLNYFALGVLIFVFLVIFYGIIAIHDIPYLIAKKRNHPHADAIHTAGWVSLFTLHVIWPFLWIWATLYQPERGWGMQSHVASQEKATDPEIAALSDRISRLEHQLAAEKKTDYSTFPEI	failed
MFMREIELRGHIIDSLILPKVFDKILDMGGDYKVLEFEIGKRKTDPSYAKILVIGRDERHVDEILNELRDLGAEIPEIEEVELQPAEKDMVLPEGFYSTTNHKTFIRFKGKWIEVENQKMDGAIVVYPDEMRAEVKTIRNIKKGDLVVVGHKGVRVIPPEKPREGGGLFEFMKSDASSEKPKETIIRRIAKEMYEIREKYRKTGKGGIVVVGGPAIIHTGAGWALAKLIRMGYVQALFAGNALATHDIESVLYGTSLGVDLKTGKSVPGGHSHHLRAINTIMRAGSIKDAVEQGILKEGVMYECIKNNIPYVLAGSIRDDGPLPDVITDVVKAQEKMRELLKGKDMVLMLSTMLHSIATGNLLPSWVKTICVDINPAVVTKLMDRGTSQALGIVTDVGVFLPMLVEELEKLEKEKEKSEKREELEHHHHHH	not failed
MFNIADGGFTELHTLWLNEEKAAVPGREYEIWHRRHDYWLLAGIVTHGYGRWQDIQNDIRFAIINEPFKMDVGKGNFLEIKNKFLARRFKLLEQALVIEEQLRRAAYLNLAQDPSHPAMSLNARFAEVECLAESHQHLSKESLAGNKPANAVLHKVLNQLEELLSDMKSDVSRLPATLARIPPVAQRLQMSERSILSRLA	failed
MFNPNVAVKNIVTQNGADSIISLIARILMAYIFLVAGWGKITAYSATVGYMEAMGVPGALLPLTILVEFGGGLALLFGFQARFAAFGLGIFSLLTAFIFHEGTDQAQAINFMKNFAMAGGLFFLMLHGAGKISLDAAIEK	failed
MFPILLLAFIFVPIIEIGLFIQVGGFLGLWPTIALVLITAFVGASLVRSQGIQTLMSVQGRLEQGEIPAQQIFEGVMLAVAGVLLLTPGFMTDALGMVVLLPAPRAAIAKYLMSKMVVKTMHGGGFQGGFSNQGPFEQDPFHRDPFDSRSDNGNTFEGEYERKDDDDRNKLN	failed
MFPLNFHYEDVSRQDPLLKPNHANVMEVPGSCEIRVVPKAPYNFIIKNGKLAMEIPRGQKFIQTQRGSTGKSFRSNPFLGSNKDKGYVSDLARQSTLRGHGMSNFSVRISTVMSLLDFPVEIRKNSIQFSMETEFCEFSPELEDHFEIFEHIRGFNVTIITSANTQDETLPLWSGFLQKDEGETQ	failed
MFPNSILGRPPFTPTHQQHNNFFALSPTLYSHQQLIDAQFNFQNVDLSRAVSLQPLTYGTVSPIQTSTSPLFRGRKRISDEKAFRLDGKRQRFHSPHQEPTIINQLVPLSGDRRYSMPPLFHTHYVPEIVRCVPPLREIPLLEPREITLPEAKDKLSQQILELFETCQQQASDLKKKELCRAQLQREIQLLFPQSRLFLVGSSLNGFGARSSDGDLCLVVKEEPCFFQVNQKTEARHILTLVHKHFCTRLSGYIERPQLIRAKVPIVKFRDKVSCVEFDLNVNNTVGIRNTFLLRTYAYLENRVRPLVLVIKKWASHHEINDASRGTLSSYSLVLMVLHYLQTLPEPILPSLQKIYPESFSTSVQLHLVHHAPCNVPPYLSKNESSLGDLLLGFLKYYATEFDWNTQMISVREAKAIPRPDDMEWRNKYICVEEPFDGTNTARAVHEKQKFDMIKDQFLKSWQRLKNKRDLNSVLPLRAATLKR	failed
MFQAIQQKLLLMPSGKKNLLSLGMKTAITRVFSALFAFLLTLIVSRTTDASTSGQFFFLFNLVSLTAIISQRGFDVALVRFNAIAFSNGDIQQQSDNYWTALTRSITFCFMAAVTLFVGFYLFPNQLNQTNSPIVAITLALMCVPFLVLGQTNSRVLQASKMVVPSLFALQLGVSVLMVLFIMGLSTLHLQNINSLMTALLLASLIVSIASTTKWFSSGQYQKPTPTTNIELISSAKQVWIGSIFTNILQWGSIVIAGFFISTTELGLLAAAQRTSLLIGFVLITINFVVAPMFASLFKEGKLDKLRNLSRWACRANIGAALLPVLVCTLFPEFVMQLFGDEFLAAAPLLVVLSLGQLVNIATGSVGFLLLMSGHERTMKYITICSGTISIALLVFLSQSYGVLGAAWAMAIGMAIQNLAALYFVKRYLGFFPVG	failed
MFQALIDVVLPVFLVIGAGYCTTFAGYFKPEHIDGVMRFTQGFAIPCLLFRAIANLDLNAGFDPALLASFYMAAFLCFTAGLLGARLLFNRDWEDSVAIGFCCLFSNSVLLGLAITERAYGPENLVGNYAIIAIHSPFCYALGITTMEVIRNRGRGGRKMVTSVLNAMFRNVLILGIALGFIVNLSGISLPQIADDALSLIIRAALPGALFALGGVLVQYRPEGDTRVIVYICAISLLLHPGLVWLFGSALALPQDLFRSGVLNAAMAPGFNAYIFANIYGRAKRVAASSVLVATAASILTVWMWLMLLG	failed
MFQISFMSKQLQDLIDRELMNASSLVKKGKYEKALEKLNKAERLAEKAKNSELFCRVLLHKGEILDSMEKSREALLQYEKALEISLRFFMSDPQDSSSQRCLYNSIDLMENILNKIDDVSVAEKSYERTNKYFGKVIGTYEKLIAKYPENHYYLINYIITVKNLRGYLLNVGKSEKQIQLINSTLETFKEILNIQPENPEIFEKLDEFVKDLGEEFLDDELFENAKKIYEHLQGIYRGLLENYPDNELVLHYLIVSYGYFGNLYSRQRYLDRIEETYRPALSIVEDNLRKNPENTAFLENLGKIHEKIGVTYSEAKDQEKANSYYEKALANFVNLKGKASEDPDYQAELGKIFANLGERFETINRIENAAKSYLHKIEIYDSLFEEDPEDEDVKMDNIDTLMHIGNLYAEAGYTEPAKKYYEKAIEGYERLLSENPESTDFEIGISDILTALGDMYAKVGEEETEPEDAELETAREYYEKALKLNEKEFERYPDDLTCQDELIRTLGKLGDSFAVQDRYEDVIPFYRRIVEIKEQVVRDDPRRWLAVNSLTNFLYQLGSYYGKIEEVELERKQYSKAAELYSRALHDKNLQHQIKEVLAVEVQSHGTALLKSGKYNAAKEALDLALEFFENLYEEDPEDEENYPFICEALFQNGNLQRALENFEEAAKSFDSLLPIVEKLLESNPESPEARENAGVTYTNVGEVYSLNGEYEKSKQAFERALTINAVLLEEEPDNSLYKINQAQTFEKYAKLLSKLGRSEEAEDYSTKSEEIYRKLAEEDSDEGDINE	failed
MFRAMHLSLLGCLLGTSGCHGLPPAPPAPSAAVGNYGEVIDYLQRHIRREMERQDVPGLALALVDDQQLVWARGFGYADRQHRINASEHTAFHAGDLSKLLIASATLQLAERGQLSLDAPLQDTLREFYVRSRFHADQSEADRAITFRRLLSHQSGLPGEHLPPLFGERPNSLGQLPAKVSGVWLSNPPGTQVAHSNLGYELVGAAIERNTGKHFEQHMREHLLDPLQMTRSSFARNALPQAQRAHGYSGGGRPGSASDLPVNDLWSSPVDLSRFVRMLFANGRHKERQLLRKHSVEEMFRQQNAGNALDFDCQVGLAWFLSPCGSAPLEGGIRHYEYASATPGFSAHLILLPEQRLAAIVMSNADDSGSLTASLARQAASLMLQVKQGARRPAVQPTPARAPALEVPSPEDRRQLYGRYATRQGQIRLYERRGRLYADFGEQRVELLRDTSGWLQMRKRLLGFWPVGVDSAGQLQLDVVSYGQRRILVSRRHDQTAYLGERIEPTSLPQAWTEAVGTYRVASTGRHSYLNGLSIRIEDGFLLVRGQAGGTRSGEFILQPIDSAHAVLAGSGQGLGDTFSRDFDGLNALGYRFAQQDTKARPWLQRKESP	failed
